The values below are quoted from earlier work in patent publication US7449180B2, “Macroscopic scaffold containing amphiphilic peptides encapsulating cells” (priority 2001, dated 2008).

Details of the data set: key: β denotes beta-sheet; α denote alpha-helix; r.c. denotes random coil. Conditions: secondary structure of the peptide.

Turning to n-(ADADADADARARARAR)-c [DAR32-IV], the Structure result is listed as “α/β”.

In the case of n-AEAEAEAEAKAK-c [EAK12], the Structure entry is listed as “α/β”.

Consider n-AEAEAEAEAKAKAKAK-c [EAK16-IV], for which the Structure entry is recorded as “β”.

Turning to n-AEAEAHAH-c [EAH8-II], the Structure entry was “r.c”.

In the case of n-AEAEAHAHAEAEAHAH-c [EAH16-II], the Structure result is listed as “β”.

As to n-AEAEAKAK-c [EAK8-II], the Structure result is given as “r.c”.

Regarding n-AEAEAKAKAEAEAKAK-c [EAK16-II], the Structure entry is “β”.

On to n-AEAKAEAK-c [EAKA8-I], for which the Structure result was “r.c”.

Take n-AEAKAEAKAEAKAEAK-c [EAKA16-I]: the Structure entry is “β”.

As to n-FEFEFKFKFEFEFKFK-c [EFK16-II], the Structure result was “β”.

For the substance n-FEFKFEFK-c [EFK8-II], the Structure entry is listed as “β”.

Take n-HEHEHKHK-c [EHK8-I]: the Structure result is recorded as “r.c”.

Consider n-HEHEHKHKHEHEHKHK-c [EHK16], for which the Structure entry is recorded as “r.c”.

For the substance n-KADAKADA-c [KADA8-I], the Structure result was “r.c”.

As to n-KADAKADAKADAKADA-c [KADA16-I], the Structure entry is on record as “β”.

On to n-KAKAKAKAEAEAEAEA-c [KAE16-IV], for which the Structure entry is “β”.

Take n-LELELKLK-c [ELK8-II]: the Structure entry is “r.c”.

Regarding n-LELELKLKLELELKLK-c [ELK16-II], the Structure entry is given as “β”.

In the case of n-RADARADA-c [RADA8-I], the Structure entry is on record as “r.c”.

For the substance n-RADARADARADARADA-c [RADA16-I], the Structure entry is “β”.

For n-RADARGDARADARGDA-c [RGDA16-I], the Structure result is “r.c”.

For the substance n-RAEARAEA-c [RAEA8-I], the Structure entry is on record as “r.c”.

n-RAEARAEARAEARAEA-c [RAEA16-I]: the Structure result was “β”.

As for n-RARADADA-c [RAD8-II], the Structure entry is given as “r.c”.

Take n-RARADADARARADADA-c [RAD16-II]: the Structure entry is listed as “β”.

Consider n-RARARARADADADADA-c [RAD16-IV], for which the Structure result was “β”.

For the substance n-RFRFRFRFRFRFRFRFRFRF-c [RF20*], the Structure result is on record as “β”.

For the substance n-VEVEVEVEVEVEVEVEVEVE-c [VE20*], the Structure result is on record as “β”.
